Changes are numbered by the printed parent chain. Values belong to the binder of their own block, whether it stands above or below them.
Experiments:
Experiment in all cases: capture ELISA, alanine scan, vs silent alanine substitutions
[1] = target: T1, hCTLA4_ECD.His point mutant T72 to alanine (human, UniProt P16410 36-161)
T1 construct: extracellular domain; alanine-scan mutein, HEK293F supernatant
T1 sequence (looked up): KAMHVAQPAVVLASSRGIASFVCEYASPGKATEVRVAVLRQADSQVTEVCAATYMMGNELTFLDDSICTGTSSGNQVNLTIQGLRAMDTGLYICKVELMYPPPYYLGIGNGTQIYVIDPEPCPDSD
Outline: (§1)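 Secreted His-tagged CTLA4 point muteins in quantified supernatant were captured and probed with HRP anti-His antibody and TMB. Absorbance normalised to the mean of control mutants; epitope residues were assigned with a binding fold-change cutoff of <0.55.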

[2] = target: T2, hCTLA4_ECD.His point mutant T82 to alanine (human, UniProt P16410 36-161)
T2 construct: extracellular domain; alanine-scan mutein, HEK293F supernatant
T2 sequence (looked up): T1 sequence (looked up) with A37T, T47A
Outline: as §1

[3] = target: T3, hCTLA4_ECD.His point mutant Y89 to alanine (human, UniProt P16410 36-161)
T3 construct: extracellular domain; alanine-scan mutein, HEK293F supernatant
T3 sequence (looked up): T1 sequence (looked up) with A37T, Y54A
Outline: as §1

[4] = target: T4, hCTLA4_ECD.His point mutant M90 to alanine (human, UniProt P16410 36-161)
T4 construct: extracellular domain; alanine-scan mutein, HEK293F supernatant
T4 sequence (looked up): T1 sequence (looked up) with A37T, M55A
Outline: as §1

[5] = target: T5, hCTLA4_ECD.His point mutant C103 to alanine (human, UniProt P16410 36-161)
T5 construct: extracellular domain; alanine-scan mutein, HEK293F supernatant
T5 sequence (looked up): T1 sequence (looked up) with A37T, C68A
Outline: as §1

[6] = target: T6, hCTLA4_ECD.His point mutant V131 to alanine (human, UniProt P16410 36-161)
T6 construct: extracellular domain; alanine-scan mutein, HEK293F supernatant
T6 sequence (looked up): T1 sequence (looked up) with A37T, V96A
Outline: as §1

[7] = target: T7, hCTLA4_ECD.His point mutant Y139 to alanine (human, UniProt P16410 36-161)
T7 construct: extracellular domain; alanine-scan mutein, HEK293F supernatant
T7 sequence (looked up): T1 sequence (looked up) with A37T, Y104A
Outline: as §1

[8] = target: T8, hCTLA4_ECD.His point mutant L141 to alanine (human, UniProt P16410 36-161)
T8 construct: extracellular domain; alanine-scan mutein, HEK293F supernatant
T8 sequence (looked up): T1 sequence (looked up) with A37T, L106A
Outline: as §1

[9] = target: T9, hCTLA4_ECD.His point mutant G142 to alanine (human, UniProt P16410 36-161)
T9 construct: extracellular domain; alanine-scan mutein, HEK293F supernatant
T9 sequence (looked up): T1 sequence (looked up) with A37T, G107A
Outline: as §1

[10] = target: T10, hCTLA4_ECD.His point mutant G144 to alanine (human, UniProt P16410 36-161)
T10 construct: extracellular domain; alanine-scan mutein, HEK293F supernatant
T10 sequence (looked up): T1 sequence (looked up) with A37T, G109A
Outline: as §1

[11] = target: T11, hCTLA4_ECD.His point mutant N145 to alanine (human, UniProt P16410 36-161)
T11 construct: extracellular domain; alanine-scan mutein, HEK293F supernatant
T11 sequence (looked up): T1 sequence (looked up) with A37T, N110A
Outline: as §1

[12] = target: T12, hCTLA4_ECD.His point mutant G64 to alanine (human, UniProt P16410 36-161)
T12 construct: extracellular domain; alanine-scan mutein, HEK293F supernatant
T12 sequence (looked up): T1 sequence (looked up) with G29A, A37T
Outline: as §1

[13] = target: T13, hCTLA4_ECD.His point mutant K65 to alanine (human, UniProt P16410 36-161)
T13 construct: extracellular domain; alanine-scan mutein, HEK293F supernatant
T13 sequence (looked up): T1 sequence (looked up) with K30A, A37T
Outline: as §1

Fold change [1]: 0.541 fold
Fold change [2]: 0.436 fold
Fold change [3]: 0.512 fold
Fold change [4]: 0.492 fold
Fold change [5]: 0.544 fold
Fold change [6]: 0.504 fold
Fold change [7]: 0.431 fold
Fold change [8]: 0.486 fold
Fold change [9]: 0.543 fold
Fold change [10]: 0.478 fold
Fold change [11]: 0.196 fold
B1: W3162-1.146.19-z12-uAb.IgG1K (antibody, V domains shown)
VH: QVQLQESGPGLVKPSETLSLTCSVTYHTITSGYDWTWIRKPPGKGMEWIGYISYSGNTNYNPSLKSRVTISRDTSKNQFFLKLSSVTAADTAVYYCASMMVPHYYVMDAWGQGTLVTVSS
VL: DIVMTQTPLSLSVTPGQPASISCRSSQSLLNSDGNTYLYWYLQKPGQSPQLLIYLVSKLGSGVPNRFSGSGSGTDFTLKISRVEAEDVGVYYCVQGTHDPWTFGGGTKVEIK
notes: Humanized; label says IgG1K

Fold change [12]: 0.543 fold
Fold change [13]: 0.351 fold
B2: W3162_1.154.8-z35-uAb.IgG1K (antibody, V domains shown)
VH: QVQLVQSGAEVKKPGSSVKVSCKASGYTFTNYFMNWVRQAPGQGLEWMGRVDPEQGRADYAEKFKKRVTITADKSTSTAYMELSSLRSEDTAVYYCARRAMDNYGFAYWGQGTLVTVSS
VL: EIVLTQSPDFQSVTPKEKVTITCSANSALSYMYWYQQKPDQSPKLWVHGTSNLASGVPSRFSGSGSGTDFTLTINSLEAEDAATYYCHHWSNTQWTFGGGTKVEIK
notes: Humanized; label says IgG1K
